Data as given in patent publication US20260167721A1.

Assays:
[1] = target: Jurkat TCRb knockout cells; assay: flow cytometry on Jurkat KO (TCRb knockout) cells, negative control, antibody at 10 ug/ml
[2] = target: Jurkat TCRb knockout cells; assay: flow cytometry, Jurkat KO (TCRb knockout) cells, negative control, 10 ug/mL
[3] = target: Jurkat TCRb knockout cells; assay: flow cytometry, Jurkat KO (TCRb knockout) cells, negative control, 1 ug/mL
[4] = target: Jurkat TCRb knockout cells; assay: flow cytometry on Jurkat KO (TCRb knockout) cells, negative control, antibody at 1 ug/ml

flow cytometry signal [1]: 2820
gMFI [2]: 1830 gMFI
gMFI [3]: 1860 gMFI
flow cytometry signal [4]: 3000
B1: Gemtuzumab (antibody, V domains shown)
VH: EVQLVQSGAEVKKPGSSVKVSCKASGYTITDSNIHWVRQAPGQSLEWIGYIYPYNGGTDYNQKFKNRATLTVDNPTNTAYMELSSLRSEDTAFYYCVNGNPWLAYWGQGTLVTVSS
VL: DIQLTQSPSTLSASVGDRVTITCRASESLDNYGIRFLTWFQQKPGKAPKLLMYAASNQGSGVPSRFSGSGSGTEFTLTISSLQPDDFATYYCQQTKEVPWSFGQGTKVEVKR
